{"source": "patent US20250127783", "biological_target": "HA-Cdh1 (UniProt Q9UM11)", "sequence (Q9UM11 whole entry)": "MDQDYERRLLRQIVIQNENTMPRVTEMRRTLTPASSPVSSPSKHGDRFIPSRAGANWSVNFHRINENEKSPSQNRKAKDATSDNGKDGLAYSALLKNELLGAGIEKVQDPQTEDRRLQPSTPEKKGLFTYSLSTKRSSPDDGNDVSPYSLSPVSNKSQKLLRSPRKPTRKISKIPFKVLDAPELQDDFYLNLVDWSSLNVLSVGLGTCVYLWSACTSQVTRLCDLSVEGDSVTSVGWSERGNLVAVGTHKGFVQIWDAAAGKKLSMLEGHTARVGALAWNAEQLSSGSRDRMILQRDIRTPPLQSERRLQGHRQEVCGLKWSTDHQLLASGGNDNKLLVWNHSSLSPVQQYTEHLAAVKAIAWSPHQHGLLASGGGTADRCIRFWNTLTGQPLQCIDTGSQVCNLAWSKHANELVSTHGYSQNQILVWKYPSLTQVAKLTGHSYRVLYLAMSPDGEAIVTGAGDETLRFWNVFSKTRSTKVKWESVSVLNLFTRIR", "data": [{"substance": "recombinant human cyclin D1+CDK4 proteins (Abcam ab55695)", "values": [{"measurement": "in vitro kinase assay (thiophosphate ester immunoblot)", "result": "CDK4 specifically phosphorylates Cdh1 at S163"}]}]}
